Tests used:
[1] = biological target: tir_eco57 tir (UniProt Q7DB77)
[2] = biological target: wasl_rat Wasl (UniProt O08816)
wasl_rat Wasl, sequence (O08816 whole entry): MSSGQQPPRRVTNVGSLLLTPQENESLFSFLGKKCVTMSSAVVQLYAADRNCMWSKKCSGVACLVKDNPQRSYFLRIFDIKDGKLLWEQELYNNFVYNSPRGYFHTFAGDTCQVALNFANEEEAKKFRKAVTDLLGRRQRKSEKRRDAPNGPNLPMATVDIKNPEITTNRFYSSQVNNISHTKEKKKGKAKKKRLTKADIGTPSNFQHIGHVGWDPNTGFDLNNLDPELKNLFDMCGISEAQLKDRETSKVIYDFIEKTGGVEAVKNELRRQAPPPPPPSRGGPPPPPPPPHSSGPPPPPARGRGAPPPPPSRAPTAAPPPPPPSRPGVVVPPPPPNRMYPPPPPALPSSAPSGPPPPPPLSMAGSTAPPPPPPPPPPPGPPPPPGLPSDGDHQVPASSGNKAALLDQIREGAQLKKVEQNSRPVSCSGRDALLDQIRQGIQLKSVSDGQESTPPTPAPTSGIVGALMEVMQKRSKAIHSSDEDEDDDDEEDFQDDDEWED

Src substrate cortactin (Mus musculus), Q60598 S405D;S418D, sequence (Q60598 whole entry S405D/S418D): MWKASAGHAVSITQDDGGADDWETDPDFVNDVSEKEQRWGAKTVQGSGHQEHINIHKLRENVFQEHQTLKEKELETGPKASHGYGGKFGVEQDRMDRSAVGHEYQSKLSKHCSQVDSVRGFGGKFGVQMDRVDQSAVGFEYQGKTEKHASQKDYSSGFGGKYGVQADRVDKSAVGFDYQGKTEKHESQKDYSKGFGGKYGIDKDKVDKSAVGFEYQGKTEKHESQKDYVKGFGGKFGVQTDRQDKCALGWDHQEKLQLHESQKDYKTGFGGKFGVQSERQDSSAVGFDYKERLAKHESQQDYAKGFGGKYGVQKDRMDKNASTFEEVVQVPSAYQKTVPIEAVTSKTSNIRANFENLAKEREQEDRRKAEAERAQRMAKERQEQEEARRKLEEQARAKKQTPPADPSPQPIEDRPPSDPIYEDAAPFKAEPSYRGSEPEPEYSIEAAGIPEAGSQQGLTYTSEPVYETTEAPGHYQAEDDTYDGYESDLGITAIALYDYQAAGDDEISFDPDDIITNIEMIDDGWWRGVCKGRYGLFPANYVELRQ
Src substrate cortactin (Mus musculus), Q60598 Y421D;Y466D, sequence (Q60598 whole entry Y421D/Y466D): as the sequence (Q60598 whole entry S405D/S418D) above, with D405S, D418S, Y421D, Y466D counted along it
tir_eco57 tir, sequence (Q7DB77 whole entry): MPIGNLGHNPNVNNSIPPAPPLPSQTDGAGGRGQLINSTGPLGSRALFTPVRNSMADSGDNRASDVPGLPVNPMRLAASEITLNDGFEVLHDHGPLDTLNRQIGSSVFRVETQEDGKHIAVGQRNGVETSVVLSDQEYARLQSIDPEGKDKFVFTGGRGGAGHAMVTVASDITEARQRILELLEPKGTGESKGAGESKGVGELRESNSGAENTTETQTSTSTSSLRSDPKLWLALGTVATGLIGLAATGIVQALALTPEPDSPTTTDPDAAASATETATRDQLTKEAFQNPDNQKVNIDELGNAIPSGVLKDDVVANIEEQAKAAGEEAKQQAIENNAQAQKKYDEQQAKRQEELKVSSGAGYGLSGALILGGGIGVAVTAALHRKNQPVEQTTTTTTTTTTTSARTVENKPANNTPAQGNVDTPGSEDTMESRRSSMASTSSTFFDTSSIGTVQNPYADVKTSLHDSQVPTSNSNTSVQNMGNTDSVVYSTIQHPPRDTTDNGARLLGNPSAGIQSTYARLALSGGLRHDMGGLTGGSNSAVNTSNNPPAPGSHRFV
Src substrate cortactin (Mus musculus), Q60598 W525K, sequence (Q60598 whole entry W525K): as the sequence (Q60598 whole entry S405D/S418D) above, with D405S, D418S, W525K counted along it

Substance	effect of a mutation on the interaction [1]	effect of a mutation on the interaction [2]
Src substrate cortactin (Mus musculus), Q60598 S405D;S418D	with no effect	disrupting interaction
Src substrate cortactin (Mus musculus), Q60598 W525K		with no effect
Src substrate cortactin (Mus musculus), Q60598 Y421D;Y466D	increasing interaction	increasing interaction
